Experimental data: the supplement of paper PMC10126150
± gives the standard deviation of the averaged measurements.

Tested on: ATP
Experiment: switch fluorescence ratio, 500 uM ATP over buffer (Cy3 cluster intensity, sum of 5 cycles each) (fold (ratio)); higher = stronger signal-on switching upon ATP binding; sequences stand for … in TCGTCGGCAGCGTCAGATGTGTATAAGAGACAGTTTTTTTTTTTTTTTTTTTTTTTTT…TC
Conditions: aptamer strand: ATP DNA aptamer (quencher-CACCTGGGGGAGTATTGCGGAGGAAGG + anchor), 100 nM annealed; ATP concentration: 500 uM
Procedure, shortened: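 The fluorescence ratio divides summed target-cycle Cy3 intensity by summed buffer-cycle Cy3 intensity for each cluster and is averaged per switch-domain sequence. Cy3-labelled switching-strand clusters on a modified Illumina MiSeq flow-cell were annealed to 100 nM quencher-labelled ATP aptamer, then imaged in selection buffer and again after 15 min with 500 uM ATP at 22 °C. Five such cycles were run, with NaOH stripping and re-annealing between them, and clusters outside 100-1000 RFU were excluded.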
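Note: ATP exposure 15 min at 22 °C before imaging.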

Sequence | switch fluorescence ratio
TAGGGTTGGC | 0.969 ± 0.013
TAGGGTTGGT | 1.01 ± 0.046
TAGGGTTTTG | 1.01 ± 0.042
TAGGGTTTTT | 1.03 ± 0.038
TAGGTAACCG | 0.943 ± 0.056
TAGGTAGGAG | 1 ± 0.031
TAGGTAGTGG | 1.01 ± 0.027
TAGGTATATT | 0.97 ± 0.019
TAGGTCATAT | 1 ± 0.022
TAGGTCATGG | 0.985 ± 0.011
TAGGTCCCTG | 0.99 ± 0.042
TAGGTCCTGG | 0.9888 ± 0.0074
TAGGTCTTAA | 0.995 ± 0.013
TAGGTGAAAC | 0.988 ± 0.016
TAGGTGCCTT | 1.006 ± 0.0053
TAGGTGGGAT | 1.05 ± 0.038
TAGGTTAACT | 0.956 ± 0.024
TAGGTTACGG | 0.984 ± 0.024
TAGGTTAGTG | 0.951 ± 0.01
TAGGTTCTTT | 0.995 ± 0.022
TAGGTTGTAT | 0.978 ± 0.018
TAGGTTTAAA | 0.991 ± 0.039
TAGGTTTCTT | 1.01 ± 0.031

Sequence | switch fluorescence ratio
TAGGTTTGGG | 0.962 ± 0.025
TAGTAAGGGA | 1 ± 0.031
TAGTAAGGGC | 1.02 ± 0.033
TAGTAATCGA | 1.02 ± 0.018
TAGTACTGCT | 1.02 ± 0.015
TAGTAGAGCT | 1.009 ± 0.002
TAGTAGGAGT | 1.02 ± 0.035
TAGTAGGCCA | 1.01 ± 0.055
TAGTAGGGTG | 1.03 ± 0.036
TAGTATGGGT | 0.9692 ± 0.0077
TAGTATGTGG | 0.9612 ± 0.0025
TAGTATTACC | 0.9943 ± 0.0081
TAGTCAGCC | 1.01 ± 0.029
TAGTCAGGGG | 0.9852 ± 0.0041
TAGTCATATC | 1.01 ± 0.032
TAGTCATTAA | 1.002 ± 0.0028
TAGTCGAGAC | 1.01 ± 0.018
TAGTCGTTAG | 1 ± 0.037
TAGTCTACGA | 1.03 ± 0.026
TAGTCTATCG | 0.969 ± 0.025
TAGTGAAAGA | 0.9855 ± 0.0031
TAGTGCAATA | 1.6994 ± 0.00043
TAGTGCGCGC | 1.03 ± 0.025

Sequence | switch fluorescence ratio
TAGTGCTGCA | 0.9692 ± 0.0012
TAGTGGACTC | 1.02 ± 0.034
TAGTGGAGTG | 1 ± 0.011
TAGTGGCCTG | 0.955 ± 0.023
TAGTGGGCTG | 0.972 ± 0.025
TAGTGGGGTG | 0.969 ± 0.01
TAGTGGGTGG | 0.989 ± 0.01
TAGTGGTGGA | 0.9979 ± 0.009
TAGTGGTTT | 0.986 ± 0.024
TAGTTACACG | 1.01 ± 0.025
TAGTTATCGT | 1.01 ± 0.027
TAGTTATGAA | 1.01 ± 0.016
TAGTTATTA | 0.989 ± 0.026
TAGTTCTCTT | 0.989 ± 0.026
TAGTTGAGTG | 0.987 ± 0.037
TAGTTGGTTT | 0.999 ± 0.037
TAGTTTGAAT | 1.01 ± 0.024
TAGTTTTACC | 1 ± 0.013
TAGTTTTCAT | 1.021 ± 0.01
TAGTTTTCGC | 1 ± 0.031
TAGTTTTTCG | 1 ± 0.025
TATAAAAAAT | 1 ± 0.028
TATAAAAATC | 1.07 ± 0.084

Sequence | switch fluorescence ratio
TATAAATAGT | 0.96 ± 0.046
TATAACGGTT | 1.034 ± 0.0074
TATAACTCAT | 1.02 ± 0.029
TATAAGGGCG | 0.976 ± 0.058
TATAAGGGGT | 0.9862 ± 0.0083
TATAAGTAGG | 0.968 ± 0.028
TATAAGTGAT | 1.17 ± 0.26
TATAATAGTA | 1.0013 ± 0.001
TATAATATAT | 1 ± 0.029
TATAATCCTG | 0.992 ± 0.035
TATAATGGCT | 0.9555 ± 0.0054
TATAATGGGC | 0.965 ± 0.031
TATAATGTGC | 1.04 ± 0.012
TATAATTCTA | 0.9844 ± 0.0075
TATAATTCTG | 1.04 ± 0.029
TATACGCGCC | 1.12 ± 0.083
TATACGGAAT | 1.16 ± 0.051
TATACGGGTG | 1.073 ± 0.0046
TATACGTCTA | 1.07 ± 0.043
TATACGTGCC | 1.03 ± 0.025
TATACTACGG | 1.09 ± 0.024
TATACTTGGC | 1.07 ± 0.059
TATAGCATGT | 1.038 ± 0.007

Sequence | switch fluorescence ratio
TATAGCGCTT | 0.9905 ± 0.0035
TATAGCTAAT | 1.027 ± 0.0041
TATAGGAAAA | 1.35 ± 0.61
TATAGGATTT | 1 ± 0.08
TATAGGGAGG | 0.988 ± 0.027
TATAGGGGGG | 1 ± 0.017
TATAGGTTTT | 1 ± 0.081
TATAGTACGG | 1.049 ± 0.0095
TATAGTGGTC | 0.971 ± 0.035
TATAGTTGTT | 0.992 ± 0.018
TATATACTGT | 1.02 ± 0.03
TATATCAGGT | 1.018 ± 0.0066
TATATCGGGG | 0.992 ± 0.03
TATATCGGGT | 0.9968 ± 0.0072
TATATCTTTT | 1.04 ± 0.026
TATATGAGAC | 1.003 ± 0.0083
TATATGAGGG | 1 ± 0.057
TATATGATGA | 0.996 ± 0.015
TATATGATTA | 0.973 ± 0.016
TATATGCCGT | 1.02 ± 0.066
TATATGGGAA | 0.998 ± 0.029
TATATGGGGG | 0.981 ± 0.026
TATATGGTCC | 0.9841 ± 0.0083

Sequence | switch fluorescence ratio
TATATGTAAT | 1.01 ± 0.038
TATATTAAAG | 0.976 ± 0.015
TATATTACCA | 1.01 ± 0.051
TATATTCAGT | 1.02 ± 0.0099
TATATTGGGG | 0.991 ± 0.018
TATATTTCTG | 0.986 ± 0.019
TATATTTGTA | 0.979 ± 0.024
TATCACTTCC | 1.96 ± 0.023
TATCAGCATG | 1.01 ± 0.033
TATCAGTTGT | 1.03 ± 0.013
TATCATGAG | 1 ± 0.033
TATCCAAGTT | 0.999 ± 0.013
TATCCGTGGG | 0.973 ± 0.051
TATCCTTAGG | 1.01 ± 0.059
TATCCTTTGT | 1.22 ± 0.2
TATCGAAAAA | 0.967 ± 0.054
TATCGAAATT | 0.981 ± 0.021
TATCGATGTT | 1.005 ± 0.0099
TATCGGACTG | 1.01 ± 0.13
TATCGGATAA | 0.9947 ± 0.0037
TATCGGGACT | 0.9751 ± 0.006
TATCGGGTCG | 1.12 ± 0.13
TATCGGTCTT | 0.9224 ± 0.0088

Sequence | switch fluorescence ratio
TATCGGTTGG | 1.044 ± 0.0086
TATCGGTTGT | 1.03 ± 0.015
TATCGTTGTT | 1 ± 0.021
TATCTACTGG | 1.0076 ± 0.00035
TATCTATGGG | 0.983 ± 0.047
TATCTATGTA | 1.01 ± 0.02
TATCTGGGGT | 1.02 ± 0.025
TATCTGGGTA | 0.978 ± 0.01
TATCTGTTGT | 0.967 ± 0.033
TATCTTATTT | 0.9874 ± 0.0093
TATCTTTTTT | 0.98 ± 0.024
TATGAAATGT | 1.01 ± 0.033
TATGAAGACG | 1.12 ± 0.064
TATGAAGAGG | 0.994 ± 0.033
TATGAAGCCC | 1.02 ± 0.039
TATGAATCCG | 1 ± 0.063
TATGACATTA | 1.025 ± 0.0026
TATGACGACG | 1.04 ± 0.045
TATGACGGGG | 0.962 ± 0.014
